This note sets out measurements from the RNAGym collection of RNA variant scans (doi:10.1073/pnas.2313332121).

B1: TPR t1 (parent)
chain: GACCAAUCUGCCCUCAGAGCUCGAGAACAUCUUCGGAUGCAGAGGAGGCAGGCUUCGGUGGCGCGAUAGCGCCAACGUCCUCAACCUCCAAUGCAUCCCACCACAUGAUGAUGCCUGAAGAGCCUUGGUUUUUUG

Variants of B1 are the subject of the data set. The data set can be described thus: polymerase ribozyme fitness, log enrichment relative to wild type (log ratio); higher = more active; in vitro selection for triplet polymerase activity. In short, it runs like this:
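For each subunit of a heterodimeric triplet polymerase ribozyme, a mutant library was built by PCR and transcribed, then taken through a single in vitro selection round in triplicate. Selection involved annealing to a biotinylated primer, the partner subunit and triplets, incubation frozen at −7 °C, gel excision of extended constructs, capture on streptavidin beads and RT-PCR. Genotypes were retained after Illumina sequencing of inputs and outputs only with ≥10 input reads and ≥1 read in each output. Fitness is defined as the logarithm of a genotype's enrichment relative to wild-type enrichment, using inverse-variance-weighted averages across replicates, with the logarithm taken to base 2.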
In the case of C8A G45C A50C G57C G93C, the “polymerase ribozyme fitness (log ratio)” value is -2.56.

On to A5G A6G G52A A83U, for which the “polymerase ribozyme fitness (log ratio)” value was -2.69.

For C28A A41U C53G C104G G110A, the “polymerase ribozyme fitness (log ratio)” value is -6.89. C11G G63A C82G G117U C123G: the “polymerase ribozyme fitness (log ratio)” value was -2.82. As for C31G G42U C72G C98U G107C C115U, the “polymerase ribozyme fitness (log ratio)” value was -6.04. To U130A G135U belongs -0.655; to G71A C94G A108G C123A G135U, -4.8; to G51A C70G, -6.9.

With U30C U87G, the “polymerase ribozyme fitness (log ratio)” value is -2.72. U87A U106A: the “polymerase ribozyme fitness (log ratio)” value came out at 0.566. As for A46C U112G G122U G135U, the “polymerase ribozyme fitness (log ratio)” value was -2.04.

As for G63C G113A, the “polymerase ribozyme fitness (log ratio)” value was -2.11. As to C34A G113A, the “polymerase ribozyme fitness (log ratio)” value was -4.03. On to A29U C114G, for which the “polymerase ribozyme fitness (log ratio)” value is -4.29. To C31G A37U C97A U116G belongs -7.62; to C4U C34G G57A U67C G69A C124U G127C, -6.05; to U55A C80A C86G C124G, -4.35.

In the case of C8U A18U C20A A95U G117A, the “polymerase ribozyme fitness (log ratio)” value is -3.83. Then C3U A29U, with -1.77. Then C11G G69C, with -1.7; and A68G C88G A105C A111C, with -4.63. To A16U G61U belongs -1.11; to U30A G48C G63U C124A, -5.12; to A18C C72U C73U U106A C124U, -1.79. In the case of G113U U116A, the “polymerase ribozyme fitness (log ratio)” value is -4.64. Then C12G A27G G39C, with -3.18; and A66G G128C, with -3.65. To C11U U78C U106G belongs -2.03; to C4A C11G, -1.18; to C40U C53U G61C U131A, -0.765. Then A16U G107U C124G, with -4.06; and A74G C101U, with 0.132.

On to C11U C20A A29U G117U, for which the “polymerase ribozyme fitness (log ratio)” value was -4.71. To A111C A119U belongs -2.28; to G36C U129A, -2.27; to G39C G47C, -3.08. Then C13U G17U C49U A50C, with -2.06; and G39A G69C, with -0.611; and G120U U126G U132A, with -0.734. Consider C70U A74G G120C, for which the “polymerase ribozyme fitness (log ratio)” value is -1.57.

Take U96G G110U: the “polymerase ribozyme fitness (log ratio)” value was -2.73. Consider C40A C73A U81C C104U, for which the “polymerase ribozyme fitness (log ratio)” value is -0.977. Regarding U21A C89U, the “polymerase ribozyme fitness (log ratio)” value was -0.222.

Regarding G48U G57U A75G A83C G117A, the “polymerase ribozyme fitness (log ratio)” value was -4.82. To C11G C53G C114U G127C belongs -1.98; to A111G, 0.509. Then U32C C49U C53U A75G A83C C99U, with -5.45. A5U C53U: the “polymerase ribozyme fitness (log ratio)” value is -0.883. Then G17U A105C U109A C124A, with -5.37. Then U54A U59G, with -0.218. Take G10A C11A G42U G48A G63A A66U A91G C115U: the “polymerase ribozyme fitness (log ratio)” value was -6.69. As for A27C C49U G61U U92C, the “polymerase ribozyme fitness (log ratio)” value was -6.24. For the variant C8U C15G G63U U87A, the “polymerase ribozyme fitness (log ratio)” value is -3.32. On to C15A G71U A90U U106C A118U, for which the “polymerase ribozyme fitness (log ratio)” value is -4.15.

With G42C G44U G117U A118U, the “polymerase ribozyme fitness (log ratio)” value was -5.32. U96A U131C: the “polymerase ribozyme fitness (log ratio)” value was -1.19. Then G17A G71A C72U C94G C123G, with -5.54; and C104A C123U G128U U130A, with -1.35; and C8G C98G U132C, with -4.39. To A6U C8A G52U C53A C72A U92A C101A U130G belongs -5.85; to U9G G61C, -1.59.

As to C70U C102G A121G, the “polymerase ribozyme fitness (log ratio)” value is -5.14. Consider A24G G71C, for which the “polymerase ribozyme fitness (log ratio)” value was -2.48. A27C C124G: the “polymerase ribozyme fitness (log ratio)” value is -0.608. To C12G G117C U126G belongs -3.28; to C8G G71A C73A C94U C104U, -1.01; to C31A G107C, -4.91.

Take U55A G63A C85G C88G: the “polymerase ribozyme fitness (log ratio)” value is -2.1.

G17A G47A A111U: the “polymerase ribozyme fitness (log ratio)” value was -5.85. Then A2G C4G C8G G47U U54C C72A, with -2.53; and G51C A111G, with -4.71. Then A50C C62A U106A A111G C114U C123A, with -5.42. Then G51A C124U, with -1.14; and C34U C49G C53G A75G C88A C104A U112A, with -5.7; and C73U A119U, with -0.348.

Turning to U9C G58A A100U, the “polymerase ribozyme fitness (log ratio)” value is -0.581.

In the case of U81G C94U A121G, the “polymerase ribozyme fitness (log ratio)” value is -2.71. To A2G C12U A75U A111G G113A belongs -1.23. As to C56U G122A, the “polymerase ribozyme fitness (log ratio)” value is -0.36. Then U7G G17U A27C C53U C56A, with -4.57; and G10U U14A U116C A121C, with -4.9; and G48A U87A, with -0.877.

With A37U U54A G61C U109C, the “polymerase ribozyme fitness (log ratio)” value is -7.14.
